Here are results for 16 molecules from patent US20210147536A1 (MAB VENTURE BIOPHARM, published 2021).

Sequences and labels used below:
T1: human LAG-3 on the cell surface (human, UniProt P18627 23-525)
T1 construct: whole, on cells; also called cells expressing the human LAG-3
T1 sequence (looked up): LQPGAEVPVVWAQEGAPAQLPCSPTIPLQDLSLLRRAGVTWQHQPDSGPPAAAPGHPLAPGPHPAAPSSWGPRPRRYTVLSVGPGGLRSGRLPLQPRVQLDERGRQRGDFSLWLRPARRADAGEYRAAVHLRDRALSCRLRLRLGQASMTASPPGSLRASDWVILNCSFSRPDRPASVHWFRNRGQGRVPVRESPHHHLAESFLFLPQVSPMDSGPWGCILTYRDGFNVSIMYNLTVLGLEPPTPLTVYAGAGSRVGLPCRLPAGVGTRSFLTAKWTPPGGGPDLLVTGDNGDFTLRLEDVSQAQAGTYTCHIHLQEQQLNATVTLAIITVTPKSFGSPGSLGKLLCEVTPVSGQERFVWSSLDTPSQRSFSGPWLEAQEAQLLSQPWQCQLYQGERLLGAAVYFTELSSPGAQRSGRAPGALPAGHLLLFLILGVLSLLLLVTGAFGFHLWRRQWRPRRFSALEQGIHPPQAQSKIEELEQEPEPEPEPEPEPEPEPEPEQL

T2: human LAG-3-6*His tag recombinant fusion protein (human, UniProt P18627 23-450, biotin-labelled in panning and in Example 9)
T2 construct: Bought protein; also called hLAG-3-6*his tag recombinant protein; human LAG-3-his tag recombinant fusion protein
T2 sequence: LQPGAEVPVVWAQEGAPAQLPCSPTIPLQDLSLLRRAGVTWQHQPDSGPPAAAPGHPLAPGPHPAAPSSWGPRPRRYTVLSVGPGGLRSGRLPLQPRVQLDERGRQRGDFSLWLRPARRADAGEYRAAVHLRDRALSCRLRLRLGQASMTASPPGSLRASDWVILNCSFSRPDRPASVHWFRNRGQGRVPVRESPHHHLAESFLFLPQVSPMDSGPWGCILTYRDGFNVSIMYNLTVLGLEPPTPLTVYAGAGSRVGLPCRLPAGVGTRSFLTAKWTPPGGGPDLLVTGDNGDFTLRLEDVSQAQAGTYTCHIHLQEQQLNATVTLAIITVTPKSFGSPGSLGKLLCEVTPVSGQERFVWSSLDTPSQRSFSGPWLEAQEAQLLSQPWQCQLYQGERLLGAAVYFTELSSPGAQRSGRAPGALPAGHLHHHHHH

B1: scFv single chain antibody 11507 (scFv)
scFv: QVQLQESGPGLVKPSETLSLTCTVSGYSISSGYYWGWIRQPPGKGLEWIGSIYHSGSTYYNPSLKSRVTISVDTSKNQFSLKLSSVTAADTAVYYCARDLQDWFDPWGQGTLVTVSSGGGGSGGGGSGGGGSGGGGASLAVLTHAPSASGTPGQRVTISCSGSKSNIGSNSVNWYQHLPGTAPKLLIHTNDQRPSGVPDRFAGSKSGTSASLTISGLRPEDEADYYCATWDDSMSGPVFGGGTELTVL
notes: From phagemid pCLS1.0, which adds a C-terminal Myc-His tag
B2: scFv single chain antibody 11449 (scFv)
scFv: QVQLVQSGAEVKKPGASVKVSCKASGYTFTSYGISWVRQAPGQGLEWMGWISAYNGNTNYAQKLQGRVTMTTDTSTSTAYMELRSLRSDDTAVYYCARDEGANWGDAFDIWGQGTMVTVSSGGGGSGGGGSGGGGSGGGGASQLVLTQSPSASGTPGQRVTISCSGSSSNIGNNAVNWYQQLPGTAPKILIYSNNQRPSGVPDRFSGSKSGASASLAISGLQSEDESDYYCAAWDDSLNAVVFSGGTELTVL
notes: as for B1
B3: scFv single chain antibody 11506 (scFv)
scFv: QLQLQESGPGLVKSSQTLSLTCSVSGDSISSGKYYWTWIRQPAGKGLEWLGRIHSSGFAQYNPSLKGRLTISVDTRKNEFSLKMTSVTAADTAVYYCARGGWNDPFDSWGQGTLVTVSSGGGGSGGGGSGGGGSGGGGASDIQMTQSPDSLAVSLGERATINCKSSQSVLYSSNNKNYLAWYQQKPGQPPKLLIYWASTRESGVPDRFSVSGSGTDFTLTISSLHAEDVAVYYCQQYYSTPITFGPGTKLEIK
notes: as for B1
B4: scFv single chain antibody 11446 (scFv)
scFv: EVQLVESGGGVVQPGRSLRLSCAASGFTFSNYAMHWVRQAPGKGLEWVAVISYDGSDKYYADSVKGRFTISRDNSKNTLYLQMKSLRAEDTAVYYCARSIGFLESDAFDIWGQGTTVTVSSGGGGSGGGGSGGGGSGGGGASDIVLTQSPSSLSASVGDRVTITCQASHGISNFLNWYQQKPGKAPKLLIYDASTLETGVPSRFSGSGSGTDFRFTISSLQPEDIATYYCQQFDNLPITFGQGTRLEIK
notes: as for B1
B5: scFv single chain antibody 11454 (scFv)
scFv: EVQLLQSGGGLVQPGGSLRLSCAASGFTFSSYEMNWVRQAPGKGLEWVSYISSSGSTIYYADSVKGRFTISRDNAKNSLYLQMNSLRAEDTAVYYCARVGLLDAFDIWGQGTMVTVSSGGGGSGGGGSGGGGSGGGGASQSVLTQPPSVSAAPGQKVTISCSGSSSNIGNNYVSWYQLIPEKAPRLLIYDDDKRPSGIPDRFSGSQSGTSATLGITGLQTGDEADYFCGTWDNSLSGAVFGGGTQLIIL
notes: as for B1
B6: scFv single chain antibody 11487 (scFv)
scFv: QVQLVESGGGLVQPGRSLRLSCVASGFTFDDHAMHWVRQTPEKGLEWVSGISWNGGDIRYADSVKGRFIISRDNAKNSLHLQMNSLRGEDTAVYYCARDGGYSVLRAFDIWGQGTTVTVSSGGGGSGGGGSGGGGSGGGGASQSVLTQPPSVSGAPGQRVTISCTGSSSNIGAGYDVHWYQQLPGTAPKLLIYGNSNRPSGVPDRFSGSKSGTSASLAITGLQAEDEADYYCQSYDSSLSGWVFGGGTQLIIL
notes: as for B1
B7: scFv single chain antibody 11452 (scFv)
scFv: EVQLLESGAEVKKPGASVKVSCKASGYTFTSYGISWVRQAPGQGLEWMGWISAYNGNTNYAQKLQGRVTMTTDTSTSTAYMELRSLRSDDTAVYYCARDGWWELLRPDDAFDIWGQGTTVTVSSGGGGSGGGGSGGGGSGGGGASQLVLTQSPSVSVSPGQTASITCSGDKLGDKYAYWYQQKPGQAPVLVIYYDSDRPSGIPERFSGSNSGNTATLTISRVEAGDEADYYCQVWDSSSDQVVFGGGTQLTVL
notes: as for B1
B8: scFv single chain antibody 11451 (scFv)
scFv: QVQLQESGPGLVKPSETLSLTCTVSGGSISSGGYYWGWIRQPPGKGLEWIGSIYYSGRTYYNPSLKSRVTISVDTSRNQFSLKLSSLTAADTAVYYCARTGGGAYGFDYWGQGTLVTVSSGGGGSGGGGSGGGGSGGGGASQPVLTQPHSVSESPGKTVTISCTRSSGNIASNYVQWYQKRPGSPPTTVIYEDNQRPSGVPDRFSASIDSSSNSASLTISGLRTEDEADYYCQSYDTILGYVFGGGTQLTAL
notes: as for B1
B9: scFv single chain antibody 11465 (scFv)
scFv: QVQLVQSGAEVKKPGSSVKVSCKTSGGTFSNYAINWVRQAPGQGLEWMGVIIPMFGPANYVQKFQGRVTITADETTSTAYMELSSLRSEDTAIYYCARDLAPAGFYGMDVWGQGTTVTVSSGGGGSGGGGSGGGGSGGGGASDIVLTQSPSSVSASVGDRVTITCRASQGISNWLAWYQQKPGKAPKLLIYAASSLQSGVPSRFSGSRSGTDFTLTISSLQPEDFATYYCQQARNFPFTFGQGTRLEIK
notes: as for B1
B10: scFv single chain antibody 11458 (scFv)
scFv: RVRLQESGPGLVKPSETLSLTCTVSGGSISSSSYYWGWIRQPPGKGLEWIGSIYYSGSTYYNPSLKSRVTISVDTSKNQFSLKLSSVTAADTAVYYCAREYSGYDGAYVGYWGQGTLVTVSSGGGGSGGGGSGGGGSGGGGASQSVLTQPPSVSGAPGQRVTISCTGSNSNIRAGYDVHWYQQLPGTVPKLLIYGNSNRPSGVPDRFSGSKSGTSASLAISGLQSEDEGNYFCATWDDSLWGWVFGAGTELTVL
notes: as for B1
B11: scFv single chain antibody 11455 (scFv)
scFv: EVHLVESGGGVVQPGRSLRLSCAASGFTFSNYAMHWVRQAPGKGLEWVAVISYDGNNQYYADSVKGRFTISRDNSKNTLYLQMNSLRAEDTAVFYCARSIGFLESDAFDIWGQGTTVTVSSGGGGSGGGGSGGGGSGGGGASEIVLMQSPGTLSLSPGERATLSCRASQSFSDGSLAWYQQKPGQPPRLVIYDASKRATGIPDRFSGSRSGTEFTLTISSLQSEDFAVYSCQQYYNWPPTFGQGTRLEIK
notes: as for B1
B12: IgG4 monoclonal antibody 11446 (antibody, V domains shown)
VH: EVQLVESGGGVVQPGRSLRLSCAASGFTFSNYAMHWVRQAPGKGLEWVAVISYDGSDKYYADSVKGRFTISRDNSKNTLYLQMKSLRAEDTAVYYCARSIGFLESDAFDIWGQGTTVTVSS
VL: DIVLTQSPSSLSASVGDRVTITCQASHGISNFLNWYQQKPGKAPKLLIYDASTLETGVPSRFSGSGSGTDFRFTISSLQPEDIATYYCQQFDNLPITFGQGTRLEIK
notes: IgG4, kappa
B13: IgG4 monoclonal antibody 11455 (antibody, V domains shown)
VH: B12 VH with Q3H, S56N, D57N, K58Q, K84N, Y94F
VL: EIVLMQSPGTLSLSPGERATLSCRASQSFSDGSLAWYQQKPGQPPRLVIYDASKRATGIPDRFSGSRSGTEFTLTISSLQSEDFAVYSCQQYYNWPPTFGQGTRLEIK
notes: IgG4, kappa
B14: IgG4 monoclonal antibody 11471 (antibody, V domains shown)
VH: RVRLQESGPGLVKPSQTLSLTCTVSGGSISSSNWWSWVRQPPGKGLEWIGEIYHSGSTNYNPSLKSRVTISVDKSKNQFSLKLSSVTAADTAVYYCARDRAIRDAFDIWGQGTTVTVSS
VL: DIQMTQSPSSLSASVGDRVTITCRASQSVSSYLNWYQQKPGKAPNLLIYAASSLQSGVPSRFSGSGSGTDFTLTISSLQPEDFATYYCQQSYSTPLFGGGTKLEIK
notes: IgG4, kappa
B15: IgG4 monoclonal antibody 11487 (antibody, V domains shown)
VH: QVQLVESGGGLVQPGRSLRLSCVASGFTFDDHAMHWVRQTPEKGLEWVSGISWNGGDIRYADSVKGRFIISRDNAKNSLHLQMNSLRGEDTAVYYCARDGGYSVLRAFDIWGQGTTVTVSS
VL: QSVLTQPPSVSGAPGQRVTISCTGSSSNIGAGYDVHWYQQLPGTAPKLLIYGNSNRPSGVPDRFSGSKSGTSASLAITGLQAEDEADYYCQSYDSSLSGWVFGGGTQLIILG
notes: IgG4, lambda
B16: IgG4 monoclonal antibody 11454 (antibody, V domains shown)
VH: EVQLLQSGGGLVQPGGSLRLSCAASGFTFSSYEMNWVRQAPGKGLEWVSYISSSGSTIYYADSVKGRFTISRDNAKNSLYLQMNSLRAEDTAVYYCARVGLLDAFDIWGQGTMVTVSS
VL: QSVLTQPPSVSAAPGQKVTISCSGSSSNIGNNYVSWYQLIPEKAPRLLIYDDDKRPSGIPDRFSGSQSGTSATLGITGLQTGDEADYFCGTWDNSLSGAVFGGGTQLIILG
notes: IgG4, lambda

Changes are numbered by the printed parent chain.

The first experiment concerns the target T1, human LAG-3 on the cell surface. The experiment is described as follows: flow cytometry, soluble scFv supernatant on activated human CD4+ T cells, anti-His-PE. On the technique in general: A flow cytometer gives signals particle by particle.
Take B1: the binding result is “binds”.

Regarding B2, the binding result is “binds”.

For B3, the binding result is recorded as “binds”.

Consider B4, for which the binding result is given as “binds”.

On to B5, for which the binding result is “binds”.

In the case of B6, the binding result was “binds”.

In the case of B7, the binding result was “binds”.

In the case of B8, the binding result is recorded as “binds”.

As for B9, the binding result is listed as “binds”.

For B10, the binding result was “binds”.

In the case of B11, the binding result is reported as “binds”.

A further experiment deals with T2, human LAG-3-6*His tag recombinant …. Description: ELISA, human LAG-3-6*His coated at 1 µg/ml, IgG4 titrated, anti-hIgG HRP.
As usually defined, the EC50 is the concentration that produces a half-maximal response. On to B12, for which the half-maximal effective concentration (EC50) turned out to be 85.6 µg/mL.

Turning to B13, the EC50 amounted to 83.1 µg/mL.

Turning to B14, the concentration giving a half-maximal response (EC50) turned out to be 22.3 µg/mL.

As to B15, the EC50 was found to be 3.35 µg/mL.

For the molecule B16, the 50% effective concentration (EC50) worked out at 85.8 µg/mL.
